Data reported in the nanobody polyreactivity screen of Harvey et al. (2022).

Assay: yeast display, Sf9 membrane polyspecificity reagent, FACS + sequencing; frameworks hold sequencing errors
Outline: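 A synthetic nanobody library was expressed on Saccharomyces cerevisiae BJ5465 by galactose induction for 36–48 hours. The library was stained for 1 hour at 4 °C with 10% biotinylated, detergent-solubilized Sf9 membrane reagent and enriched with streptavidin microbeads before FACS. Low and high (top ~1%) gates were set on anti-HA fluorescence for expression and streptavidin fluorescence for reagent binding, and each polyreactivity label reflects the gate of origin.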

Sequence	polyreactivity (PSR sort gate)
QVQVVESGGGLVQPGGSLRVSCAASGSTFIAYVKGWSRQAPGKEWELVAAISWSGSNTYYADSVKGRFTISRDNAKITVYFQMNCLKPEDTAVYYCNARSFAPDKKYDYWGQGTQVTVSS	low polyreactivity
QVQLVESGGGLVQSGGSLRLSCAPSGRIFAGYTMGCYRQAPGKERELVAAISWSGGRTYYADSVKGRFTISRDNAKNTVYLQMNSLKPEDTAVYYCAVGFRTLHGDYGYWGQGTQVTVSS	high polyreactivity
QVQLVESGGGLVQAGGSLRLICAASGFTFYLYTMGWYRPAPGKERELVASIRRSGGSTYYADSVKGRFTISRDNAKNTVYLQMNSLKPEDTAVYYCAKRTFLVSGPRSYGWYGVYYWGQGTQVTVSS	high polyreactivity
QVQLVESGGGLVQAGGSLRLSCAASGSTFWHYAMGWYRQAPGKERELVAAISSGGGRTYYADSVKGRFTISRDNAKNTVYLQMNSLKPEDTAVYYCAARYYFYDYWGQGTQVTVSS	high polyreactivity
QVQLVESVGGLLQAGGRLRLSCAASGSTFGKYVMGWYRPAPGTERELVAAISLSGGSTYYADSVKGRFTISRDNAKNTVYLQMNCRKPEDTALNYCATVGYGYDYWGQATQVTVSS	high polyreactivity
QVQLVESGGGLVQAGGSLRLSCAASGITFWTYAMGWYIQAPGKERELVAAISNGGSTSYADSVKGRFTISRDNAKNTVYLQMNSLKPEDTAVYYCAADWATHRPWYWWVYYWGQGTQVTVSS	low polyreactivity
QVQLVESGGGLVQAGGSLRLSCAASGSIFDDYAMGWYRQAPGKERELVAAITSGGSTYYADSVKGRFTISRDNAKKTVYLLMYSLKPEDTAVYFRATRYHWSSSFAPVGAYGYWGQGTQVTVSS	low polyreactivity
QVQLVESGGGLVQAGGSLRLSCAASGFTFRANGMGWYRQAPGKERELVATITSGGTTNYADSVKGRFTISRDNAKITVYLQMNSLKPEDTAVYYCAKAFRHSTFFAPYDYWRQGTQVTVSS	low polyreactivity
QVQLVESGGGLVQAGGSLRFSCAASGNILPSNAMGWYRQAPGKERELVAVINSSGNTNYADSVKGRFTISRDNAKKTVYLQMNSLKPEDTAVYYCVIWFRYDRARKLYYWGQGTQVTVSS	high polyreactivity
QVQLVESGGGLVQAGGSLRLSCAASGRIFNDYAMGWYRQAPGKERELVAVIRRSGVSTYYADSVKGRFTISRDNAKNTVYLQMNSLKPEDTAVYYCAADIRSNRLYDGGYWGQGTQVTVSS	low polyreactivity
QVQLVESGGGLVQAGGSLRLSCAASGSTFRWYTMGWYRQATGKERDLVAAINQSGSRTYYADSVKGRFTISRDNAKNTVYLQMNSLKPEDTAVYYCNAKSYKSPHTYYYWGQGTQVTVSS	high polyreactivity
QVQHVESGGGLVQAGGSLRLSCAASGYTFCRYAMGWYRQAPGKERELVAAISQSGGRTYYADSVKGRFTISRDNAKNTVYFQMNSLKPDDTAVYYCATSSTQGDDYWGQGTQVTVSS	high polyreactivity
QVQLVESGGGLVQAGGSLRLSCAASGFTFSHNAMGWSRQAPGKERELVAGINGSGGSTYYADSVKGRFTISRDNAKNTFYLQMNSLKPEDTAVYYCSKDGSNRLALPAWDYNYWGQGTQVTVSS	low polyreactivity
QVQLVESGGGLVQAGGSLRLSCAASGSIFYYNAKGWYRQAPGKERELVAGIRRSGDSTYYADSVKGRFTISRDNAKNTVYLQLNRLKPEDTAVYYCAADRVYEASQGYTYFDYDYWGQGTQVTVSS	low polyreactivity
QVQLVESAGGLVQAGGSLRLSGAASGSTFHNYAVGWSRQAPGKERELVGGISVRGGGTYYADSVKGRFTISRDNAKNTVYLQMNSLKPEDTAVYYCAQRSRYYYRYDYWGQGTQVTVSS	high polyreactivity
QVQLVESGGGLVQAGRSLRLTCAASGSTFSIYVMGWYRQAPGKERELVAAITWSDGIKYYADSVKGRFTISRDNAKNTVYLQMNSLKRDDTAVYYCRDSHPSYRPGTVRYDYLGQGTQVTVSS	low polyreactivity
QVQLQESGGCLVQAGGSLRLSCAASGTNSDSGLMGWYRQAPGKERELVAGISSGGITTYADSVKGRFTISRDNAKNTVYLQMNSLKPEDTAVYWGQGTQVTVSC	low polyreactivity
QVQLVESGGGLVQAGGSLRLSCAASGFIFTYYAMGWYRQAPGKERELVAVISWSGGTTYYADSVKGRFTISRDNAKNTVYLQMNSLKPEDTAVYYCNADRSLLYSRKIEYDYWGQGTQVTVSS	low polyreactivity
QVQLVESGGGLVQAGGSLRLSCAASGSTFYIYGMGWYRQAPGKERELVAAISQRDGSTYYADSEKGRFTSSRDNAKNTVYLQMNSLKPEDTAVYYCNAGLWYSSYDSDYWGQGTQVTVSS	low polyreactivity
QVQLVETGGGLVQAGGSLRLSCDASVSTFRYYTMGWYRQAPGKERELVASIRRGGSTNYADSVKGRFTISRDNAKNTVYLQMNSLKPEDTAVYYCNAKKGVYNGDAAKYDYWGPGTQVTVSS	high polyreactivity
QVQLVESGGGLVQAGGSLRLSCAASGSISRYAMGWSRQAPGKERELVAAITRSGGSTHYADSVKGRFTISRDNAKNTVYLQMNSLKPEDTAVYYCATRYYRGVIRYPYDSWGQGTQVTVSS	high polyreactivity
QVQLVESGGGLVQAGGSLRLSCAASGSNFNVYVMGWYRQAPGKERELVAAISWGDGSTSYADSVKGRFTISRDHAKNTVYLQMNSLKPEDTAVYYCNRRHSYPYDYWGQGTQVTVSS	high polyreactivity

Sequence	polyreactivity (PSR sort gate)
QVQLVESGGGLVQAGGSLRLICAASGSTRRYVMGWYRQAPGKERELVAVISRGGSTYYADSVKGRFTISRDNAKNTVYLQMNSLKPEDTAVYYCNVQPVIPRGGDYWGQGTQVTVSS	high polyreactivity
QVQLVESGGGLVQAGGSLRLSCAASGRIFYPYAMGWYRQAPGKERELVAAIDWTAGGTYYADSVKGRFTISRDNAKNTVYLQMNSLKPEDTAVYYCAAEYYIEANGDYWGLGTQVTVSS	low polyreactivity
QVQLVESGGGLVQAGGSLRLSCAASGRIFWWYAMGWYRQAPGKERELVAVIDDSGGITYYADSVKGRFTISRDNAKNTVYLQRNSLKPEDTAVYYCANYYWGQGTQVTVSS	low polyreactivity
QVQLVESGGGLVQAGGSLRLSCAASGSTFSYYAMGWYRQAPGKEREFVAAISRSGGRTYYADSVKGRFKISRDNAKNTVYLQLNSLKPEDTAVYYCATVYYYDFSRTHPWPGDYWGQGTQVTVSS	high polyreactivity
QVQLVESGGGLVQAGGSLRLSCAASGRIFTYYGMGWYRQAPGKEWELVAAISSSGDSTFYADSVKGRFTISRDNAKNTVYLQMNSLKPEDTAVYYCAADYYYVWYDYWGQGTQVTVSS	low polyreactivity
QVQLVESGGGLVQAGGSLRLSCAASGSTFWWNTMGWYRQAPWKERELVADIRTSGGGTYYADSVKGRFTISRDNAKNTVYLQMNSLKPEDTAVYYCNADPKWEMGSWGQGTQVTVSS	low polyreactivity
QVQLVESGGGLVQAGASLRLSCAASGSISKSYAMGWYRQAPGKERELVAAISWRGGSTYADSVKGRFTISRDNAKNTVYLQMNSLKPEDTAVYYCAATNYGTFWGGQSERYDYWGQGTQLTVSS	low polyreactivity
QVQLVESGGGLVQAGGSLRLSCAASGRIFGSYAMGWYRQAPGKERELVAAITTDDSTNYADSVKGRFTISRDNAKNTVYLQMNSLKPEDTAVYYCNAERWDELFDSWGQVTQVTVSS	low polyreactivity
QVQLVESGGGLVQAGGSLRLSCAASGSIFTFYAMGWYRQAPGKERELVAAISSGGRTYYADSVKGRFTISRDNAKNTVYLQMNSLKPEDTAVYYCAASYQQYFYRYALPADYYYWGQGTQVTVSS	high polyreactivity
QVQLVESGGGLVQAGGSLRLSCAASGFIFSTYAMGWYRQAPGKERELVASIDWSGDSTYYADSVKGRFTISRDNAKNTVYLQMTSLKPEDTAVYEFAADDASYPYIFDSYDYWGQGTQVTVSS	low polyreactivity
QVQLVESGGGLVQAGGSLRLSCAASGSIFEPYAMGWYRQAPGKERELVAGIRKSGATTYYADSVKGRFTISRDNAKNTVYLQMNSLKPEDSAVYYCNAVVKSSSRGSISHPGYDYWGQGTQVTVSS	high polyreactivity
QVQLVESGGGLVQAGGSLRLSCPASGIIFNLYAMGWYRQAPGKERELVAAISWSGGSTDYADSVKGRFTISRDNAKNTVYLQMNSLKPEDTAVYYCATSFLYPYFDEDDYWGQGTQVTVSS	high polyreactivity
QVQLVESGGGLVQAGGSLRLSCAASGRIFSQNAMGWYRKAPGKERELVAAIRYSTGSTYYADSVKGRFTISRDNAKNTVYLQMNSLKPEDTAVYYCAADRWVSGYRRPRRGQAHYYWGQGTQVTVSS	high polyreactivity
QVQLVESGGCLVQAGGSLRLSCAASGRISGFNAMGWYRQAPGKERELVAANSYRGGSTYADSVKGRFTISRVNAKNTVYLQMNSLKPEDTAVYYCAAQSYWTFHTYYYWGQGTQVTVSS	low polyreactivity
QVQLVESGGGLVQAGGSLRLSCAASGSIFVGYTMGWYRQAPGKERELVADITYNGGTTYYADSVKGRFTISRDNAKNTVYLQMNSLKPEDSAVYYCAADYYYGWFPVYYWGQGTQVTVSS	high polyreactivity
QVQLVESGGGLVQVGGSLRLSCAASGITLTYYALGWYRQAPGKERELVAAIDSGGTTHYADSVKGRFTISRDNAKNTVYLQMNSLKPEDTAVYYCAARPTRGHWWYGYWGQGTQVTVSS	low polyreactivity
QVQLVESGGGLVQAGGSLRLSCAASGSTIYPNAMGWYRQAPGQERELVAVISSGGSTYYADSVKGRFTISRDNAKNTVYLQMNSLKPEDTAVYYCAADRGTVSYLYSPRAVDYWGQGTQVTVSS	low polyreactivity
QVQIVESGGCLVQAGGSLRLSCAASGRIIVRNAMGWYRQARGTERELVADITNGGSTNYADSVKGRFTISRDNAKNTVFLEMNSLKPEDTAVDFCAADTLGVYDGDYWGQGTQVTVSS	low polyreactivity
QVQLVESGGGLVHAGGSLRLSCAASGSTFVEYVMGWYRQAPGKERELVASIDVGTTSTRYADSVKGRFTISRDNAKNTVYLQMNSLKPEDTAVYYCNADGYYSGYWTNYDYWGQGTQVTVSS	low polyreactivity
QVQLVESGGGLVQAGGSLRLSCAASGGTCGTNAMGWYRQAPGKEREFVAAISRSGGSTNYADSVKGRFTISRDKAKNTVYLQMNSLKPEDTAVYYCATRVIVVPLGGGYYSWGQGTQVTVSS	high polyreactivity
QVQLVESGGGLVQAGGSLRVSCAASGRIFFRNAMGWYRQAPGKESELVAAITRGGGSTYYADSVKGRFTISRDNATNTVYLQMNSLKPEDTEVYYCAAGAGYSLYSAYDYWGQGTQVTVSS	low polyreactivity
